From publication PMC5716189, “Characterization of the APLF FHA–XRCC1 phosphopeptide interaction and its structural and functional implications” (Nucleic Acids Research, 2017)
Each block holds one substance with its values, some of them ahead of it.

Key:
[1] = biological target: XRCC4pSpT-12 none (pSer232; pThr233) (UniProt Q13426); assay: 1D 31P NMR pH titration of the free phosphopeptide (600 MHz); conditions: pH 4.0-8.5, 35°C, no added NaCl (50 mM sodium acetate, 50 mM sodium cacodylate)
[2] = biological target: XRCC1pSpT-9 none (pSer518; pThr519) (UniProt P18887); assay: as above; conditions: pH 4.0-8.5, 35°C, no added NaCl (50 mM sodium acetate, 50 mM sodium cacodylate)
[3] = biological target: XRCC1 (Homo sapiens) (UniProt P18887); assay: fluorescence; conditions: cited from earlier work
[4] = biological target: XRCC1 tetraphosphorylated peptide (Homo sapiens) (UniProt P18887); conditions: cited from earlier work
[5] = biological target: XRCC1pSpT-18 (unlabelled, NMR samples) none (pSer518; pThr519) (UniProt P18887); assay: 1H,15N-HSQC titration with 1H lineshape simulation (500 MHz); conditions: pH 7.4, 35°C, 150 mM NaCl, 25 mM HEPES, 25 mM MES
Sequence of XRCC1pSpT-18 (unlabelled, NMR samples) none (pSer518; pThr519) (P18887 whole entry): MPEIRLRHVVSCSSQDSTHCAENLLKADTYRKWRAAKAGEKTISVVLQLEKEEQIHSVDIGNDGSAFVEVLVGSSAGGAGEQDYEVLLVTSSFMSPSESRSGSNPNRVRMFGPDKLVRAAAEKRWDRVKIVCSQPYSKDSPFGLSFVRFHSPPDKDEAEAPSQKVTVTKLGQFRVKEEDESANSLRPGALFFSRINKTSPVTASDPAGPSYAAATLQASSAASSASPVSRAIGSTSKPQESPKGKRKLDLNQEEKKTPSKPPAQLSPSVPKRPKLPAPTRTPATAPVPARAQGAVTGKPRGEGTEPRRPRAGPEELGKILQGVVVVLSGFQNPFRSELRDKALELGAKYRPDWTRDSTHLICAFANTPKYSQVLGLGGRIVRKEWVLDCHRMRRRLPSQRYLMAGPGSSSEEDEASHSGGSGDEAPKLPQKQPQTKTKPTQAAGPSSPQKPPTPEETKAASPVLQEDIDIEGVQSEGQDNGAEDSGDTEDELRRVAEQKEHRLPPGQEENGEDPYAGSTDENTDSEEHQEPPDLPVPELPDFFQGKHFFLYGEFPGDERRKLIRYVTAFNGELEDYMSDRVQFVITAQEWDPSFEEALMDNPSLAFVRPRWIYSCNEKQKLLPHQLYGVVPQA

Sequence of XRCC1pSpT-9 none (pSer518; pThr519) (P18887 whole entry): as above
Sequence of XRCC4pSpT-12 none (pSer232; pThr233) (Q13426 whole entry): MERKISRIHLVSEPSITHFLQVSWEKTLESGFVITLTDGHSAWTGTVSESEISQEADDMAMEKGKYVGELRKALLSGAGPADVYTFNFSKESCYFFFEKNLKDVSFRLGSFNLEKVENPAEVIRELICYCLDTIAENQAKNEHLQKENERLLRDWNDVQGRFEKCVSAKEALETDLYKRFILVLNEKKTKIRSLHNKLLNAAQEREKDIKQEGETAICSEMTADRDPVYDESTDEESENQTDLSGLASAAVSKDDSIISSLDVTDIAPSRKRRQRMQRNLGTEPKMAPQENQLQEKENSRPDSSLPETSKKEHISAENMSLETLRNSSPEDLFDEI
Sequence of XRCC1 tetraphosphorylated peptide (Homo sapiens) (P18887 whole entry): as the sequence (P18887 whole entry) above
Sequence of XRCC1 (Homo sapiens) (P18887 whole entry): as above

pK, pSer232 phosphate of XRCC4pSpT-12 [1]: 6.9 pH units | pK, pThr233 phosphate of XRCC4pSpT-12 [1]: 7.22 pH units | pK, pSer518 phosphate of XRCC1pSpT-9 [2]: 6.56 pH units | pK, pThr519 phosphate of XRCC1pSpT-9 [2]: 6.86 pH units
Substance: APLF FHA domain

Substance: PNKP FHA (from UniProt Q96T60)
Kd [3]: 3.5 nM | Kd [4]: 140 nM

τB (lifetime of the protein-peptide complex) [5]: 0.9 ms
Substance: U-[15N] APLF FHA domain
